Experimental data published in patent US20150044245A1, “PARTIAL MHC CONSTRUCTS AND METHODS OF USE” (Oregon Health & Science University, priority 2012, published 2015).
Like-named read-outs stand apart in the source and are kept apart here.

What was measured:
[1] = biological target: T1, CD74 (Mus musculus, UniProt P04441); experiment: Direct binding of FITC-labeled constructs to immuno-adsorbed CD74; conditions: FITC-labeled ligand, immuno-adsorbed CD74, 4 hours at 4° C., 1% CHAPS; read-out: CD74 One binding site KD
T1 construct: DR*1501-Tg splenocytes were biotinylated and lysed as described above and CD74 was immunoprecipitated overnight; endogenous in cells; host or cells: splenocytes of DR*1501-Tg mice (surface-biotinylated, lysed in 1% CHAPS/TEN; CD74 captured on Protein L / ln-1 beads)
T1 sequence (P04441 1-215 isoform P04441-2): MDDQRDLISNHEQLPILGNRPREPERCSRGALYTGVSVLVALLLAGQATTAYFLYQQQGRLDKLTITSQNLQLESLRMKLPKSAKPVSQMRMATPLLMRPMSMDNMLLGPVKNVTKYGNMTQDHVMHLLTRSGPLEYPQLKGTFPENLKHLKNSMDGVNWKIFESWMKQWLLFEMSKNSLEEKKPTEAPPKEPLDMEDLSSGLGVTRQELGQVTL
Description: (§1) In order to test ligand binding to the separate components of the RTL receptor, DR*1501-Tg splenocytes were biotinylated and lysed as described above and CD74 was immunoprecipitated overnight at 4° C. with the anti-CD74 monoclonal antibody ln-1. Immune complexes (Protein L-beads/ln-1/CD74) were analyzed for their ability to bind FITC-labeled pDR2RTL constructs by performing a direct binding saturation with increasing concentration of the different constructs (0 to 10 nM). Binding was carried out for 4 hours at 4° C. with gentle shaking and in the presence of 1% CHAPS in TEN buffer. Afterwards the complexes were washed thoroughly with 1% CHAPS/TEN and once with only TEN buffer to remove excess detergent. Bound proteins were eluted in 2% SDS electrophoresis sample buffer at 90° C. for 6 to 8 minutes and beads were sedimented. After the supernatant was collected and proteins separated using 10-20% SDS-PAGE, the gel was scanned for FITC chromophore and quantified by densitometry. Ligand concentration was plotted versus the fluorescence intensity of the bands and the curve generated was fit to one or two binding sites with the GraphPad Prism® Software. […] Direct binding to saturating concentrations of the pDR2 constructs was carried out and analyzed as described above.

[2] = biological target: MHC class II from DR*1501-Tg mice; experiment: Direct binding of FITC-labeled constructs to MHC class II immuno-adsorbed from CD74-depleted lysate; parameters: species or system mouse; conditions: FITC-labeled ligand, read-out: MHC Class II One binding site KD
Description: as §1

[3] = biological target: T1, CD74; experiment: Coimmunoprecipitation of FITC-labeled constructs with CD74; type: binding; conditions: FITC-labeled construct, bead-immunopurified CD74
Description: For immunoprecipitation experiments, antibody TU39 (BD Pharmingen) was pre-bound to bead-conjugated Protein A for 2 hours in ice-cold TEN-TX100 or TEN-CHAPS followed by RTL binding to these complexes. Lysate (previously pre-cleared with bead-conjugated Protein A) was added to the tube and binding was carried out overnight at 4° C. with soft orbital shaking Samples were extensively washed with TEN buffer and the appropriate detergent. For CD74 immunoprecipitation, ln-1 mAb was adsorbed to bead-conjugated Protein L as described above and pre-cleared lysate was added to this mixture. When necessary, bound material was eluted by boiling the immune complexes in electrophoresis sample buffer and analyzed by SDS-PAGE and Western blot.
(§2) For direct binding of RTL constructs, Protein-L/ln-1/CD74 complexes were prepared as described above. Labeled ligand constructs were incubated for 4 hours at 4° C. in 1% CHAPS in TEN buffer and free ligand was removed by extensive washing. Elution of bound proteins was carried out as described above and the eluate was analyzed by SDS-P AGE. […] In all assays involving fluorescent labeling, the chromophore was detected by scanning at the appropriate wavelength using a Molecular Imager® FX scanner (Bio-Rad) and the fluorescence intensity was determined using Quantity One® software (Bio-Rad) associated with the imager.

[4] = tested on: CD80; experiment: CD80 expression on CD11b+ monocytes from spinal cord of treated EAE mice; type: in vivo, mouse; conditions: day 15 post-immunization
Description: EAE was induced in mice by immunization with mMOG-35-55. At disease onset, the mice were treated with one of the following constructs: (i) pDR2 with covalently bound mMOG-35-55 (100 μg), (ii) pDR2 without peptide (1000 μg), (iii) DR-α1 (750 μg), or (iv) vehicle alone. The constructs were administered subcutaneously for two sequential days. On day 15 post-immunization, mice were sacrificed and spinal cords were harvested and pooled for each group. Isolated cells were stained for CD74, CD11b, CD80, ICAM, and HLA-DR expression and analyzed by FACS.

[5] = tested on: mMOG-35-55-induced EAE in DR*1501-Tg mice; conditions: for effect on EAE (in words): mMOG-35-55-induced EAE
[6] = tested on: hMOG-35-55-induced EAE in DR*1502-Tg mice; conditions: treated at disease onset
Description: In addition, mice were given pertussis toxin (Ptx) from List Biological Laboratories (Campbell, Calif.) on days 0 and 2 post-immunization (75 ng and 200 ng per mouse, respectively). Immunized mice were assessed daily for clinical signs of EAE on a 6 point scale of combined hind limb and forelimb paralysis scores. For hind limb scores: 0=normal; 0.5=limp tail or mild hind limb weakness (e.g., a mouse cannot resist inversion after a 90° turn of the base of the tail); 1=limp tail and mild hind limb weakness; 2=limp tail and moderate hind limb weakness (e.g., an inability of the mouse to rapidly right itself after inversion); 3=limp tail and moderately severe hind limb weakness (e.g., inability of the mouse to right itself after inversion and clear tilting of hind quarters to either side while walking); 4=limp tail and severe hind limb weakness (hind feet can move but drag more frequently than face forward); 5=limp tail and paraplegia (no movement of hind limbs). Front limb paralysis scores are either 0.5 for clear restriction in normal movement or 1 for complete forelimb paralysis. The combined score is the sum of the hind limb score and the forelimb score.
(§3) Rarely, there was mortality of HLA-DR2 mice with severe EAE and in these cases, mice were scored as a 6 for the remainder of the experiment. Mean EAE scores and standard deviations for mice grouped according to initiation of RTL or vehicle treatment were calculated for each day and summed for the entire experiment (Cumulative Disease Index, CDI, represents total disease load). Daily mean scores were analyzed by a two-tailed Mann Whitney U test for nonparametric comparisons between vehicle and pDR2 treatment groups. Mean CDIs were analyzed by a one way ANOVA with Tukey post-test, and a nonparametric one way Kruskal-Wallis ANOVA with Dunn's multiple comparisons post-test to confirm significance between all groups.
(§4) pDR2 constructs (Table 3) were injected subcutaneously daily for 5 days at the indicated doses to treat EAE induced in HLA-DR2-Tg and MBP-TCR/DR2-Tg mice and clinical signs were scored as described above. […] Fab1B11 alone in vehicle was run as a negative control.

[7] = tested on: MBP-85-99-induced EAE in MBP-TCR/DR2-Tg mice
Description: HLA-DR2 positive male and female mice between 8 and 12 weeks of age were immunized subcutaneously at four sites on the flanks with 0.2 ml of an emulsion of 200 μg immunogenic peptide and complete Freund's adjuvant containing 400 μg of heat-killed Mycobacterium tuberculosis H37RA (Difco, Detroit, Mich.) (Vandenbark et al, J Immunol 171:127-133, 2003; Buenafe et al, Immunology 130:114-124, 2010). In addition, mice were given pertussis toxin (Ptx) from List Biological Laboratories (Campbell, Calif.) on days 0 and 2 post-immunization (75 ng and 200 ng per mouse, respectively). Immunized mice were assessed daily for clinical signs of EAE on a 6 point scale of combined hind limb and forelimb paralysis scores. For hind limb scores: 0=normal; 0.5=limp tail or mild hind limb weakness (e.g., a mouse cannot resist inversion after a 90° turn of the base of the tail); 1=limp tail and mild hind limb weakness; 2=limp tail and moderate hind limb weakness (e.g., an inability of the mouse to rapidly right itself after inversion); 3=limp tail and moderately severe hind limb weakness (e.g., inability of the mouse to right itself after inversion and clear tilting of hind quarters to either side while walking); 4=limp tail and severe hind limb weakness (hind feet can move but drag more frequently than face forward); 5=limp tail and paraplegia (no movement of hind limbs). Front limb paralysis scores are either 0.5 for clear restriction in normal movement or 1 for complete forelimb paralysis. The combined score is the sum of the hind limb score and the forelimb score.
as §3, §4

[8] = biological target: T1, CD74; experiment: Competition with labeled RTL1000 for binding to immunoprecipitated CD74; conditions: unlabeled competitor
Description: as §2

[9] = biological target: T2, CD74 (Mus musculus, UniProt P04441); experiment: CD74 cell-surface expression on CD11b+ monocytes in vitro (FACS); type: cell-based; conditions: naïve CD11b+ monocytes, 1 hour at 37° C.
T2 construct: endogenous in cells; host or cells: CD11b+ monocytes of DR2 (DR*1501)-Tg mice: naive blood cells in vitro; blood, spleen and spinal cord cells of treated EAE mice
T2 sequence (P04441 1-279): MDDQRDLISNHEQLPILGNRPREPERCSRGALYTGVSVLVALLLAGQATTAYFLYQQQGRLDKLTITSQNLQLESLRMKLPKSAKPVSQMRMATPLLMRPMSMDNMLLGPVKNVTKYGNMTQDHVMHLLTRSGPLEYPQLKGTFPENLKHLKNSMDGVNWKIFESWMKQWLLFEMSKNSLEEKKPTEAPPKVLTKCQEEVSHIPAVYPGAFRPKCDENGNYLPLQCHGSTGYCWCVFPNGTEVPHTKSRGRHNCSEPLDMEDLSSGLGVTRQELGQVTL
Description: Analysis of naive DR2 PBMC subtypes was preformed using four-color (fluorescein isothiocyanate (FITC), phycoerythrin (PE), propidium iodide, allophycocyanin) flow cytometry. Blood was collected from naive DR2 mice through cardiac exsanguination into 1X PBS/EDTA. After washing blood in 1X PBS, the red blood cells were lysed with 1X RBC lysis buffer (eBioscience, Inc., San Diego, Calif.) followed by two washes in RPMI. One million cells were incubated in RPMI with 1 μg unlabeled pDR2, 1 μg pDR2FITC, or 1 μg Fab Neutralized pDR2FITC for one hour at 37° C. For samples assessing Fab neutralization of pDR2 binding, pDR2s were incubated with 1:1 molar ratio of Fab1B11 or FabD2 for two hours at room temperature prior to incubation with cells, pDR2 incubation was followed directly by a 30 minute incubation at 4° C. with CD3 PE (ebioscience, Inc., San Diego, Calif.), CD74 PE (Santa Cruz Biotechnology, Inc., Santa Cruz, Calif.), or CD11b PE, CD11b allophycocyanin, CD11c allophycocyanin, CD19 allophycocyanin (BD Pharmingen, San Diego, Calif.). Antibodies and pDR2 were thoroughly removed by two additional washes in 1X PBS/0.5% BSA staining media. Cells were resuspended in staining media containing propidium iodide and immediately analyzed with a FACSCALIBUR™ using FCS EXPRESS™ software (BD Biosciences, San Jose, Calif.). […]

[10] = DR*1501-Tg mice, mMOG-35-55/CFA/Ptx EAE, treated at disease onset
[11] = MBP-TCR/DR2-Tg mice, treated for five days following onset

B1: RTL302-5D: Human HLA DR2 (DRB1*1501/DRA*0101) β1α1 domains (V102D, I104D, A106D, F108D, L110D), no peptide (protein)
chain: MGDTRPRFLWQPKRECHFFNGTERVRFLDRYFYNQEESVRFDSDVGEFRAVTELGRPDAEYWNSQKDILEQARAAVDTYCRHNYGVVESFTVQRRVIKEEHDIDQDEDYDNPDQSGEFMFDFDGDEIFHVDMAKKETVWRLEEFGRFASFEAQGALANIAVDKANLEIMTKRSNYTPITN
[1]
  Kd: > 10 nM
[2]
  Kd: > 10 nM
[3]
  coimmunoprecipitation with CD74 (in words): also coimmunoprecipitated with CD74, but at much lower levels
[4]
  CD80 expression (in words): decreased
[5]; 100 μg x 5 (Table 11)
  CDI: 43.1 ± 10.6
  Incidence: 9/9
  Mortality: 0
  Onset: 11.7 ± 1.1
  Peak: 3.3 ± 0.9
[5]; 1 mg x 2 (Table 11)
  CDI: 34.2 ± 6.2
  Incidence: 3/3
  Mortality: 0
  Onset: 9.0 ± 0.0
  Peak: 2.8 ± 0.3
[5]; [10]
  Incidence: 9/9
  Onset: 11.7 ± 1.1
[5]; DR*1501-Tg mice, treated at disease onset
  Mortality: 0
[5]; cumulative disease index, DR*1501-Tg mice, treated at disease onset
  CDI: 42.9 ± 10.7
[5]; listed as pDR2/no peptide
  effect on EAE (in words): significant reduction of daily and cumulative EAE scores compared to treatment with vehicle
[5]; listed as pDR2 without peptide
  effect on EAE (in words): lower than those treated with vehicle alone
[5]; peak clinical EAE score, DR*1501-Tg mice, treated at disease onset
  Peak: 3.3 ± 0.9
[6]; cumulative disease index
  CDI: 36.8 ± 7.1
[6]; hMOG-35-55/CFA/Ptx EAE
  Incidence: 6/6
  Onset: 15.0 ± 1.7
[6]; peak clinical EAE score
  Peak: 2.9 ± 0.5
[6]
  Mortality: 0
[7]; MBP-85-99-induced EAE
  effect on EAE (in words): ineffective at treating EAE
[7]; [11]
  CDI: 43.3 ± 12.0
  Incidence: 6/6
  Mortality: 0
  Onset: 17.5 ± 5.0
  Peak: 3.7 ± 0.8

B2: DR-α1: construct comprising DR-α1 domain alone (with no DR2-β1 domain or peptide) (protein)
chain: IKEEHVIIQAEFYLNPDQSGEFMFDFDGDEIFHVDMAKKETVWRLEEFGRFASFEAQGALANIAVDKANLEIMTKRSNYTPITN
[2]
  Kd: > 10 nM
[8]
  competition with pDR2/hMOG-35-55 for binding to CD74 (in words): competed with pDR2/hMOG-35-55 for binding to CD74
[3]
  coimmunoprecipitation with CD74 (in words): coimmunoprecipitated with CD74
[9]
  CD74 expression versus construct binding/concentration (in words): inverse relationship between pMHC concentration and CD74 expression
[5]; 100 μg daily X2 (Table 12)
  CDI: 32.9 ± 7.8
  Incidence: 4/4
  Mortality: 0
  Onset: 10.0 ± 1.2
  Peak: 2.6 ± 0.5
[5]; 300 μg daily X2 (Table 12)
  CDI: 24.1 ± 10.3
  Incidence: 11/11
  Mortality: 0
  Onset: 9.5 ± 0.8
  Peak: 2.3 ± 0.6
[5]; 500 μg daily X2 (Table 12)
  CDI: 20.7 ± 12.7
  Incidence: 10/10
  Mortality: 0
  Onset: 9.6 ± 0.7
  Peak: 2.5 ± 0.7
[5]; 1000 μg daily X2 (Table 12)
  CDI: 21.1 ± 9.9
  Incidence: 6/6
  Mortality: 0
  Onset: 10.7 ± 1.0
  Peak: 2.3 ± 0.4
[5]
  effect on EAE (in words): lower than those treated with vehicle alone
